Data published in the supplement of paper PMC10567573.

B1: STK38L (parent)
chain: NWKETLVFPPEVPISEKAKDLILR
B2: GFOD1 (parent)
chain: EEAEELAKEMSVPFYTSRIDEVLL

Variants of: B1
Test: protein stability index of a GFP-peptide fusion (GPS, HEK-293T) (PSI 1-6); higher = more stable
Conditions: c terminus: a fixed tail appended
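Further: lentivirally expressed fusions sorted by FACS into six bins by GFP to DsRed ratio, PSI derived from sequencing read proportions per bin multiplied by bin number.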

Protein stability index: each site, then its substitutions
N1: I 2.18 | D 3.57 | V 2.41 | Y 2.44 | K 2.9 | R 2.74 | S 4.02 | M 1.98 | W 1.78 | Q 3.09 | C 3.1 | A 2.16 | H 3.04 | P 3
K3: I 2.42 | G 3.17 | E 3.41 | H 3.68 | M 2.42 | A 3.37 | N 3.46 | C 2.59 | L 2.02 | D 3.69 | F 1.64
W2: L 3.96 | D 3.68 | S 3.01 | I 3.32 | H 3.46 | T 4.64 | Y 3.25 | V 3.59 | A 4.45 | C 3.67 | R 3.39 | M 3.54 | P 4.09 | F 3.37 | E 4.15 | N 4.14 | Q 4.21

Variants of: B2
Test: as above
Conditions: c terminus: a fixed tail appended

Protein stability index of substitutions, site by site:
I19: K 4.41 | L 3.69 | G 4.48 | S 4.75 | V 4.31 | H 4.85 | C 4 | Y 4.64 | A 4.54 | Q 4.93 | M 3.2 | T 4.11 | E 5.1 | P 4.48 | D 5.04 | R 4.57 | F 3.01 | N 5
L23: S 4.54 | N 4.21 | H 3.9 | E 5.13 | V 4.26 | W 3.02 | R 4.31 | F 2.98 | T 3.87 | G 3.66 | I 3.66 | D 5.11 | P 4.57 | Y 3.42 | Q 4.72
L24: T 4.22 | M 3.73 | C 4.04 | G 4.11 | E 4.97 | V 4 | I 3.75 | S 4.41 | D 5.2 | F 3.55 | N 4.6 | Q 4.78 | P 4.98 | Y 3.2 | H 3.18
E21: A 2.66 | K 2.56 | Y 2.66 | D 4.08 | Q 3.39 | N 3.69 | T 3.65 | V 2.45 | L 1.61 | S 3.83 | R 2.8 | W 1.83 | P 3.92 | C 1.97 | M 1.78 | F 1.42
D20: V 2.08 | E 3.91 | K 2.78 | M 2.33 | Y 2.47 | C 2.46 | P 3.55 | L 2.07 | F 2 | A 2.74 | W 2.59 | R 3.04 | T 2.66 | H 2.73 | N 3.29 | G 2.42 | Q 3.79 | I 1.9
R18: S 4.56 | N 4.4 | T 4.27 | A 4.26 | I 2.92 | P 4.15 | D 4.79 | Q 4.69 | L 3.05 | F 3.17 | V 2.64 | C 4.17 | Y 4.04 | H 4.57 | W 3.71 | K 4.26 | M 3.43 | E 4.65
V22: N 4.21 | M 4.29 | C 3.7 | W 3.62 | S 3.86 | I 3.23 | P 4.24 | A 4.53 | T 4.51 | F 3.73 | L 3.1 | E 5.12 | H 4.68 | Y 3.78 | R 4.26 | D 5.23 | Q 4.65
S17: V 3.12 | Q 3.27 | R 3.9 | Y 2.94 | W 3 | T 3.29 | P 4.43 | N 4.04
